Data set [1] concerns the molecule itself. The experiment in a line: SEC; Superdex 200 prep grade, XK 16/70 column; 2 mL of 5 mg/mL protein; 40 mM Tris-HCl, 150 mM NaCl, pH 8.0; 1 mL/min; column calibrated with proteins of known size. (Size exclusion chromatography separates by hydrodynamic size, large species first.)
Substrate in data set [2]: Nc1ncnc2c1ncn2[C@@H]1O[C@H](COP(=O)(O)OP(=O)(O)OP(=O)(O)O)[C@@H](O)[C@H]1O
The experiment in a line: HPLC (SCX column) detection of SAM formed. The data set is classed as biochemical, Thermococcus kodakarensis. To be noted: co-substrate L-methionine (10 mM in standard assay), 0.1 M Tris-HCl, 0.02 M MgCl2, 0.2 M KCl, pH 8.0, 37 °C. An excerpt: (§1) HPLC (SCX column) detection of SAM formed on TkMAT

Substrate in data set [3]: CSCC[C@H](N)C(=O)O
The experiment in a line: HPLC (SCX column) detection of SAM formed. The following applies: co-substrate ATP (10 mM in standard assay), 0.1 M Tris-HCl, 0.02 M MgCl2, 0.2 M KCl, pH 8.0, 37 °C. The data set is classed as biochemical, Thermococcus kodakarensis.
Text: as §1

As a reminder, the stoichiometry N is a count of units in the complex or per binding partner. A word on the Km: it is the substrate concentration at which the rate is half of its maximum.

B1: methionine adenosyltransferase from Thermococcus kodakarensis (enzyme, UniProt Q5JF22 1-405, looked up)
chain: MAGKVRNIVVEELVRTPVEMQKVELVERKGIGHPDSIADGIAEAVSRALSREYVKRYGIILHHNTDQVEVVGGRAYPQFGGGEVIKPIYILLSGRAVEMVDREFFPVHEIALKAAKDYLRKAVRHLDLEHHVIIDSRIGQGSVDLVGVFNKAKKNPIPLANDTSFGVGYAPLSETEKIVLETEKYLNSDEFKKKYPAVGEDIKVMGLRKGDEIDLTIAAAIVDSEVDNPDDYMAVKEAIYEAAKGIVESHTERPTNIYVNTADDPKEGIYYITVTGTSAEAGDDGSVGRGNRVNGLITPNRHMSMEAAAGKNPVSHVGKIYNILSMLIANDIAEQVEGVEEVYVRILSQIGKPIDEPLVASVQIIPKKGYSIDVLQKPAYEIADEWLANITKIQKMILEDKVNVF
notes: methionine adenosyltransferase (S-adenosylmethionine synthase) of Thermococcus kodakarensis, gene cloned from genomic DNA into pET28a(+); the printed gene length (1155 bp) and primers may not fit this gene; Homodimer in solution by size exclusion chromatography; No removal of the His-tag is described; also called TkMAT; MAT
For B1, the “stoichiometry N” value in data set [1] worked out at 2. Besides, the Km in data set [2] is 6.54 ± 2.49 mM; in data set [3], 0.31 ± 0.07 mM.
